Test results taken from the nanobody polyreactivity screen of Harvey et al. (2022).

Experiment: yeast display, Sf9 membrane polyspecificity reagent, FACS + sequencing; frameworks hold sequencing errors
Procedure, shortened: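 Nanobodies came from a synthetic yeast display library in Saccharomyces cerevisiae BJ5465, induced with galactose for 36–48 hours and stained for 1 hour at 4 °C with 10% biotinylated, detergent-solubilized Sf9 membrane reagent. Cells were enriched on streptavidin microbeads and then FACS-sorted, with low and high (top ~1%) gates set on anti-HA fluorescence for expression and streptavidin fluorescence for reagent binding. Each polyreactivity label reflects the gate a clone came from. Genes were amplified by colony PCR, sequenced by MiSeq 2 × 250 and filtered by CDR length.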

Which “polyreactivity (PSR sort gate)” value does the source give for “QVQLVESGGGLVQAGGSLRLSCAASGSISSYYAMGWYRQAPGQERELVAAITLNGGNTYYADSVKGRFTISRDNAKKTVYLQMNSLKPEDTAVYYCARRYRYGTKYYYWGQGTQVTVSS” here?
The value was “high polyreactivity”.

For “QVQLVESGGGLVQAGGSLRLSCAASGSISVHYAMGWYRQAPGKERELVAAISRRGGSTYYADSVKGRFTISRDNAMNTVYLQMNSLKPEDTAVYYCNASYYSVIQQTWYDYWGQVTQVTVSS”, which “polyreactivity (PSR sort gate)” value is on record?
The value was “high polyreactivity”.

With “QVQLVESGGGLVQAGGSLRLSCAASGSISVPYGMGWYRQAPGKERELVAAITGGSTNYADSVKGRFTISRDNAKNTVYLQMNSLKPEDTAVYYCAADVYWYYGAPELWYRYDYWGQGTQVTVSS” as the sequence, how does the “polyreactivity (PSR sort gate)” value read?
The value was “low polyreactivity”.

Which “polyreactivity (PSR sort gate)” value does the source give for “QVQLVESGGGLVQAGGSLRLSCAASGSISVWYVMGWYRQAPGKEREFVAAIDYGGGSTYADSVKGRFTISRDNAKNTVYLQMNSLKPEDTAVYYCNADNWVYLYDYWGQGTQVTVSS” here?
Its value is “low polyreactivity”.

For “QVQLVESGGGLVQAGGSLRLSCAASGSISWYYAMGWYRQAPGKERELVAAISDSGGDTYYADSVKGRFTISRDNAKNTVYLQMNSLKPEDTAVYYCATDTAYWLWVYALLEYWGQGTQVTVSS”, which “polyreactivity (PSR sort gate)” value is on record?
Its value is “low polyreactivity”.

With “QVQLVESGGGLVQAGGSLRLSCAASGSISYFNAMGWYRQAPGKERELVAAIDVSGDSTYYADSVKGRCTISRDNAKISLYLQMNSLKPEDTAVYYCAKDPTSWYRTFGHSYYWYDYWGQGTQVTVSS” as the sequence, how does the “polyreactivity (PSR sort gate)” value read?
The value was “low polyreactivity”.

With “QVQLVESGGGLVQAGGSLRLSCAASGSISYFYAMGWYRQAPGKERELVADINSGDDTYADSVKGRFTISRDNAKNTVYLQMNSLKPEDTAVYYCSVKYGGYESHYYRRPHYDYWGQGTQVTVSS” as the sequence, how does the “polyreactivity (PSR sort gate)” value read?
The value was “low polyreactivity”.

With “QVQLVESGGGLVQAGGSLRLSCAASGSISYINAMGWYRQAPGKERELVARIRSGDRTNYADSVKGRFTISRDNAKNTVYLQMNSLKPEDTAVYYCAARGLRTGGYWGQGTQVTVSS” as the sequence, how does the “polyreactivity (PSR sort gate)” value read?
The value was “high polyreactivity”.

With “QVQLVESGGGLVQAGGSLRLSCAASGSISYKYALGWYRQAPGKERELVAAISSSGGRTYYADSVKGRFTISRDNAKNTVYLQMISLKPEDTAVYYCNARTGTTWQGYEYDYWGQGTQVTVSS” as the sequence, how does the “polyreactivity (PSR sort gate)” value read?
Its value is “low polyreactivity”.

Which “polyreactivity (PSR sort gate)” value does the source give for “QVQLVESGGGLVQAGGSLRLSCAASGSISYKYVMGWYRQAPGKEREFVASITRIGGSTYYADSVKGRFTISRDNAKNTVYLQMNSLKPEDTAVYYCARDYDYWSWPSAYDYWGQGTQVTVSS” here?
Its value is “low polyreactivity”.

Which “polyreactivity (PSR sort gate)” value does the source give for “QVQLVESGGGLVQAGGSLRLSCAASGSISYRYVMGWYRQAPGKERELVAAITTSGGSTYYADSVKGRFTISRDNAKNTVYLQMNSLKPEDTAVYDCAAKHNVYRYSRYYWGQGTQVTVSS” here?
Its value is “high polyreactivity”.

With “QVQLVESGGGLVQAGGSLRLSCAASGSISYTYAMGWYRQAPGKERELVAAISYSDGITYYADSVKGRFTISRDIAKNTVYLQMNSLKPEDTAVYYCAVEGVYPYYDQSEYDYWGQGTQVTVSS” as the sequence, how does the “polyreactivity (PSR sort gate)” value read?
Its value is “high polyreactivity”.

Which “polyreactivity (PSR sort gate)” value does the source give for “QVQLVESGGGLVQAGGSLRLSCAASGSITPRNAMGWYRQAPGKERELVARISGSGGTTYYADSVKGRFTISRDNAKNTVYLQMKSLKPEDTAVYYCAASVRWNKYTLYDYWGQGTQVTVSS” here?
Its value is “low polyreactivity”.

For “QVQLVESGGGLVQAGGSLRLSCAASGSITSNVMGWYRQAPGKEMELVAAISRGGGSTYYADSVKGRFTISRDNAKNTVYLQMNSLKPEDTAVFYCAADVWGGLLPGYDYWGQGTQVTVSS”, which “polyreactivity (PSR sort gate)” value is on record?
Its value is “high polyreactivity”.

For “QVQLVESGGGLVQAGGSLRLSCAASGSIVAYNAMAWYRQAPGKEWELVAAINSGSLTYYADSVTGRFTISRDNAKYTVYLPMNSLKPEDTAVYYCAAEWERWYYRYDYWGQGTQVTVSS”, which “polyreactivity (PSR sort gate)” value is on record?
The value was “high polyreactivity”.

Which “polyreactivity (PSR sort gate)” value does the source give for “QVQLVESGGGLVQAGGSLRLSCAASGSIVDYNAMGGYRQAPGKERELVAAISVNGGNTYYADSVKGRFTISRDYAKNTVYFQMNTLKPEDTAVYYCAADSYGGSKYDYWGQGTQVTLSS” here?
Its value is “low polyreactivity”.

For “QVQLVESGGGLVQAGGSLRLSCAASGSIVGSNAMGWYRQAPGKERELVAAITWSDGSPYYADSVKGRFTISRDNAKNTVYLQMNRLKPEDTAVYVCATDYGYSWYDYWGQGTQVTVSS”, which “polyreactivity (PSR sort gate)” value is on record?
The value was “low polyreactivity”.

With “QVQLVESGGGLVQAGGSLRLSCAASGSIVRRYAMGWYRQAPGKEREFVAAISKRGGGTYYADSVKGRFTISRDNAKNTVYLQMNSLKPEDTAVYYCAAPWRRIGYTTRGYTLYDYWGQGTQVTVSS” as the sequence, how does the “polyreactivity (PSR sort gate)” value read?
Its value is “high polyreactivity”.

Which “polyreactivity (PSR sort gate)” value does the source give for “QVQLVESGGGLVQAGGSLRLSCAASGSIVRYYAMGWYRQAHGKEREFVAAISWSGGSTYYADSVKGRFTISRDNAKKTVYLQRNSLKPEDTAVFFCATTPGVWSTGGTNGFGYWGQGTQVTVSS” here?
Its value is “high polyreactivity”.

Which “polyreactivity (PSR sort gate)” value does the source give for “QVQLVESGGGLVQAGGSLRLSCAASGSIVSYYAMGWYRKAPGKERELVAAISKSGGRTYYADSVKGRFTISRDNAKNTVYLQMNSLKPEDTAVYYCAAPATYKYEYWGQGTQVTVSS” here?
The value was “high polyreactivity”.

Which “polyreactivity (PSR sort gate)” value does the source give for “QVQLVESGGGLVQAGGSLRLSCAASGSIVVDYAMGWYRQAPGKERELVAAITSTGSTTYADSVKGRFTISRDNAKNTVYLQMNSLKPEDTAVYYCAASFRWYGTVRYPYEMYYWGQGTQVTVSS” here?
Its value is “low polyreactivity”.
